Earlier results in article PMC3924328, “Structure of the S100A4/myosin-IIA complex” (BMC Structural Biology, 2013).

Target: myosin-IIA 1904-1927 (Homo sapiens) (UniProt P35579)
Test: fluorescence anisotropy

Chain of S100A4 (P26447 2-101): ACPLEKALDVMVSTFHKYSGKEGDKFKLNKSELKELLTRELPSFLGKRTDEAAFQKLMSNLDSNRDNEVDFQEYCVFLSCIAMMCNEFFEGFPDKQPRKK
Chain of myosin-IIA 1904-1927 (Homo sapiens) (P35579 1904-1927): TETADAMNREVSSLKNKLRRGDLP

## S100A4 (from UniProt P26447)
  Kd: 260 nM
